Measured values reported in patent US20160032279.

T1: C-reactive protein (human), P02741
T1 chain: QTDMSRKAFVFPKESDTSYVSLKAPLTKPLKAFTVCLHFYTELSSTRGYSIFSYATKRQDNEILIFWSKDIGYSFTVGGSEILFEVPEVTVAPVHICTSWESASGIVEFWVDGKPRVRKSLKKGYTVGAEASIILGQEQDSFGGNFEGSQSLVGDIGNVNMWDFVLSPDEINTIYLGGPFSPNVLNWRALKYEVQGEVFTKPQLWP


Experiments:
[1] = target: T1, C-reactive protein (human), P02741; assay: FACS; conditions: modification not given
[2] = target: T1, C-reactive protein (human), P02741; assay: FACS; conditions: modification not given

Row | Binder | Kd [1] [nM] | Kd [2] [nM]
1 | EWACNDRGFNCQLQR [CRP-1] | 1 | 1.2
2 | YPPRFQYYRFYYRGP [CRP-10] | – | 5
3 | MIFNSRGFLSLMSSG [CRP-6] | – | 8
4 | FPIYNQRGFITLASP [CRP-2] | – | 3
